In publication PMC3894748 (2013) one finds Kd data, which are given here for one molecule.

The target of this experiment is actin (Homo sapiens, UniProt P60709). The experiment can be described thus: Ca2+-ATPase activity inhibition.

B1: plasma membrane calcium pump (PMCA) (protein)
chain: MTNPSDRVLPANSMAESREGDFGCTVMELRKLMELRSRDALTQINVHYGGVQNLCSRLKTSPVEGLSGNPADLEKRRQVFGHNVIPPKKPKTFLELVWEALQDVTLIILEIAAIISLVLSFYRPAGEENELCGQVATTPEDENEAQAGWIEGAAILFSVIIVVLVTAFNDWSKEKQFRGLQCRIEQEQKFSIIRNGQLIQLPVAEIVVGDIAQVKYGDLLPADGILIQGNDLKIDESSLTGESDHVKKSLDKDPMLLSGTHVMEGSGRMVVTAVGVNSQTGIILTLLGVNEDDEGEKKKKGKKQGVPENRNKAKTQDGVALEIQPLNSQEGIDNEEKDKKAVKVPKKEKSVLQGKLTRLAVQIGKAGLLMSALTVFILILYFVIDNFVINRRPWLPECTPIYIQYFVKFFIIGITVLVVAVPEGLPLAVTISLAYSVKKMMKDNNLVRHLDACETMGNATAICSDKTGTLTMNRMTVVQAYIGGIHYRQIPSPDVFLPKVLDLIVNGISINSAYTSKILPPEKEGGLPRQVGNKTECALLGFVTDLKQDYQAVRNEVPEEKLYKVYTFNSVRKSMSTVIRNPNGGFRMYSKGASEIILRKCNRILDRKGEAVPFKNKDRDDMVRTVIEPMACDGLRTICIAYRDFDDTEPSWDNENEILTELTCIAVVGIEDPVRPEVPDAIAKCKQAGITVRMVTGDNINTARAIATKCGILTPGDDFLCLEGKEFNRLIRNEKGEVEQEKLDKIWPKLRVLARSSPTDKHTLVKGIIDSTVGEHRQVVAVTGDGTNDGPALKKADVGFAMGIAGTDVAKEASDIILTDDNFTSIVKAVMWGRNVYDSISKFLQFQLTVNVVAVIVAFTGACITQDSPLKAVQMLWVNLIMDTFASLALATEPPTESLLKRRPYGRNKPLISRTMMKNILGHAFYQLIVIFILVFAGEKFFDIDSGRKAPLHSPPSQHYTIVFNTFVLMQLFNEINSRKIHGEKNVFSGIYRNIIFCSVVLGTFICQIFIVEFGGKPFSCTSLSLSQWLWCLFIGIGELLWGQFISAIPTRSLKFLKEAGHGTTKEEITKDAEGLDEIDHAEMELRRGQILWFRGLNRIQTQIDVINTFQTGASFKGVLRRQNMGQHLDVKLVPSSSYIKVVKAFHSSLHESIQKPYNQKSIHSFMTHPEFAIEEELPRTPLLDEEEEENPDKASKFGTRVLLLDGEVTPYANTNNNAVDCNQVQLPQSDSSLQSLETSV
Regarding B1, binding was put at a Kd of 680 nM.
